Data: patent US7704703B2, “Arf and Hdm2 interaction domains and the methods of use thereof” (St. Jude Children's Research Hospital, Inc., priority 2002, dated 2010)
Entries after “also recorded” stand apart in the source; their conditions may differ.

How the values were obtained:
[1] = biological target: T1, Hdm2 210-275 (Homo sapiens, UniProt Q00987); experiment: CD-based binding assay, induction of β-strand secondary structure with Hdm2 210-275
T1 construct: poly-His (thrombin cleavable, pET28a) (cleaved yes); made in house; host or cells: E. coli BL21(DE3)
Description: Circular Dichroism. Spectra were recorded at 25° C. using an Aviv Model 62A DS circular dichroism spectropolarimeter (Aviv Instruments, Inc.) equipped with a thermoelectric temperature control unit. All samples were prepared in 10 mM Tris-HCl, pH 7.0 at 0.02-0.2 mM as determined by amino acid analysis. Spectra were recorded using 1 mm quartz cuvettes and reported spectra are the average of 10 scans over the range […]. Melting experiments were recorded in 10 mm quartz cuvettes with active stirring. The signal at 216 nm (β strand minimum) was used to monitor structural changes and the signal was averaged over 15 sec. The sample temperature was increased in 1° C. steps.
β-strand secondary structure forms when Arf and Hdm2 interact. […] This structural transition is induced when mArfN37 is added to an Hdm2 fragment and when an Hdm2 fragment is added to mArfN37. […] In contrast, the uncomplexed species elute at times consistent with monodisperse, conformationally extended polypeptides. Second, NMR resonances for ^15N-mArfN37 or ^15N-Hdm2 210-304 (and ^15N-Hdm2 210-275) are broadened beyond detection when an unlabeled form of the appropriate binding partner is added to the solution. At mArfN37:Hdm2 210-304 (or mArfN37:Hdm2 210-275) molar ratios that produce maximal β-strand secondary structure based on ellipticity at 200 nm using CD, resonances cannot be observed for the isotope-labeled component of Arf/Hdm2 mixtures. Further, the NMR spectra are consistent with slow exchange between the free and bound states.
Characterization of Arf Hdm2 assemblies. As discussed above, the addition of mArfN37 to Hdm2 210-304 results in the formation of supramolecular assemblies comprised of β-strands. Stepwise addition of sub-stoichiometric amounts of mArfN37 to Hdm2 210-304 increased β-strand secondary structure content as judged by the change in ellipticity at 200 nm using CD. […] The binding of mArfN37 to Hdm2 210-304, as monitored in this way, is saturable. Similar results were obtained when mArfN37 was mixed with the shorter fragment of Hdm2, Hdm2 210-275. Further, saturable binding is also observed when the Hdm2 fragments were added to an excess of mArfN37. These findings indicate that there are a limited number of binding sites for mArfN37 within Hdm2 210-304 and that discreet structures (containing β-strands) form when mArfN37 and Hdm2 210-304 (or 210-275) are mixed. […] Similar behavior is observed when mArfN37 binds Hdm2 210-275.

[2] = biological target: T2, GFP-p19^Arf (Mus musculus, UniProt Q64364); experiment: Microinjection and live cell imaging of Texas Red labeled Hdm2 constructs in NIH 3T3 cells lacking Arf; type: cell-based; conditions: for localization after nuclear microinjection in the presence of GFP-p19^Arf: transfected with GFP-p19^Arf
T2 construct: expressed in transfected cells; host or cells: NIH 3T3 Arf-/- cells
T2 sequence (Q64364 1-169): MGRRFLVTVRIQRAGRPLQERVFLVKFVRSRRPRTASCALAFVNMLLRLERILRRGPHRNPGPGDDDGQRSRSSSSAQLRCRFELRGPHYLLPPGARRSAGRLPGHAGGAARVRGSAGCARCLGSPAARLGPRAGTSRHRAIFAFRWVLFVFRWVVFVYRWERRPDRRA
Description: Fluorescent labeling. Proteins for fluorescence microimaging studies were covalently modified using an amine-reactive, sulfosuccinimidyl ester of TEXAS RED® (C31H29S2N2O6Cl1) (Molecular Probes, Inc., Cat. # C-1171). In brief, purified Hdm2-derived proteins were dialyzed into 100 mM sodium bicarbonate buffer, pH 8.3 at 2-4 mg/ml. The Texas Red™ dye was dissolved in dimethylsulfoxide at 10 mg/ml. Protein and dye 3:1 (vol:vol) were reacted for 1 hour at room temperature followed by purification using size-exclusion chromatography (NAP 5 G-25 columns, Amersham Pharmacia Biotech, Inc.). Labeled protein bands migrated more slowly than unlabeled protein in SDS-polyacrylamide gels consistent with the covalent attachment of dye.
Cell culture and microinjection. NIH 3T3 Arf^−/− cells passage 10-15 were cultured in Dulbecco's modified Eagle's medium (Dulbecco's modified Eagle's medium (DMEM); Gibco-Invitrogen, Inc.), 10% fetal bovine serum (FBS) at 37° C., 7% CO2. […] GFP-Arf positive cells were then located and co-injected with TEXAS RED® (C31H29S2N2O6C1 labeled Hdm2 polypeptides (2 mg/ml in 20 mM Tris-HCl, 100 mM NaCl, pH 7.0) using a Micromanipulator 5171/Transjector 5246 (Eppendorf, AG) in media supplemented with 10 mM HEPES, pH 7.2 to buffer cell media during injection and imaging. Representative cells were imaged over time. An Axiovert 135 TV inverted fluorescence microscope with an automated stage controller (Carl Zeiss, Inc.) and circulating water bath heater (Fisher) was used for both microinjection and imaging. Images were acquired with a Zeiss 40×NA=1.30 oil objective and MicroMax CCD camera (Princeton Instruments Inc.) operated with MetaMorph Version 4.01 imaging software. […]
TEXAS RED® (C31H29S2N2O6Cl1) labeled Hdm2 deletion constructs containing residues 210-275, 210-304, 277-350 and 277-491 were individually injected into cells in the absence or presence of the GFP-p19^Arf fusion protein. […] The use of live cell imaging also allowed the kinetics of localization to be monitored. […]

[3] = biological target: T3, mArfN37 (Mus musculus, UniProt Q64364); experiment: Surface plasmon resonance: Hdm2 fragments and peptides binding to immobilized His-tagged mArfN37
T3 construct: mouse p19^Arf corresponding to residues 1-37 (mArfN37); made in house; host or cells: E. coli BL21(DE3) (purified 'in a similar manner' to the Hdm2 fragments)
T3 sequence (Q64364 1-37 limits assumed): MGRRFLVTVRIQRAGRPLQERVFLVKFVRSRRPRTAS
Description: Surface Plasmon Resonance. Binding studies were performed using a Biacore 3000 surface plasmon resonance (SPR) instrument (Biacore, Inc.). A Tetra-His™ Antibody (Qiagen, Inc.; Cat. #34670) was covalently attached to a carboxymethylated gold surface (C-1 chip; Biacore, Inc.). The carboxymethyl groups on the surface were activated with N-ethyl-N′-(3-dimethylaminopropyl) carbodiimide (EDC) and N-hydroxysuccinimide (NHS) and the antibody was attached at pH 7.4 in 20 mM sodium phosphate buffer, 150 mM NaCl (PBS). Reactive sites remaining on the surface were blocked by reaction with ethanolamine. […] Binding was measured by flowing the non-His-tagged analyte through the reference and ligand-containing flow cells in sequence. […] Changes in the SPR response due to solvent differences and the injection process were monitored by injection of HBS-N buffer alone. […]
Small segments of Arf and Hdm2 participate in Arf/Hdm2 interactions. […] However, because mArfN37 is a relatively small polypeptide, it was determined whether it could bind a correspondingly small segment of Hdm2. To test this hypothesis and to monitor Arf/Hdm2 binding reactions quantitatively, Hdm2 constructs were prepared spanning amino acids 210-304 of SEQ ID NO:8 and 210-275 of SEQ ID NO:8 and then it was determined whether they could bind mArfN37 using surface plasmon resonance (SPR). […]

T1 sequence (Q00987 210-275): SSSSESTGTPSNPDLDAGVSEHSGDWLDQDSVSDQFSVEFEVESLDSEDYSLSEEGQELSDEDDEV

mouse A1 (1-14): peptide corresponding to the first mouse Arf motif, residues 1-14 (MGRRFLVTVRIQRA)
induction of β-strand secondary structure/assembly when mixed with Hdm2 210-275 (CD) [1]: interaction

Hdm2 210-304: Arf-binding domain of Hdm2, amino acids 210-304 of SEQ ID NO:8
localization after nuclear microinjection in the absence of Arf ([2]; no GFP-p19^Arf): evenly dispersed in the nucleoplasm | localization after nuclear microinjection in the presence of GFP-p19^Arf [2]: co-localized within nucleoli; also recorded: nucleolar localization | binding of Hdm2 fragment to His-tagged mArfN37 immobilized on SPR biosensor surface ([3]; Hdm2 protein fragments as analyte, no binding to control surface): bind tightly

human A2 (16-30): peptide containing the second human Arf motif, residues 16-30 (GPPRVRVFVVHIPRL)
induction of β-strand secondary structure/assembly when mixed with Hdm2 210-275 (CD) [1]: fail to induce β-strand assembly

Hdm2 277-491: Texas Red labeled Hdm2 deletion construct containing residues 277-491
localization after nuclear microinjection in the presence of GFP-p19^Arf [2]: nucleolar localization

MVRRFLVTLRIRRA (listed as Homo sapiens) [human A1 (1-14), peptide of the first Arf motif of human p14^Arf, residues 1-14]
induction of β-strand secondary structure/assembly when mixed with Hdm2 210-275 (CD) [1]: interaction

peptide containing residues 290-304: short synthetic Hdm2 peptide, residues 290-304 of SEQ ID NO:8 (SFEEDPEISLADYWK; listed as Homo sapiens)
relative affinity of Hdm2 synthetic peptides for mArfN37 (SPR) ([3]; 15 amino acid peptides of the central region of Hdm2): modest affinity

mouse A2 (16-30): peptide corresponding to the second mouse Arf motif, residues 16-30 (RPLQERVFLVKFVRS)
induction of β-strand secondary structure/assembly when mixed with Hdm2 210-275 (CD) [1]: fail to induce β-strand assembly
